These results are taken from PMC9120032, “SARS-CoV-2 ORF6 disrupts nucleocytoplasmic trafficking to advance viral replication” (Communications Biology, 2022).

Experiment [1] concerns the target T1, Flag-importin α1 recombinant protein (human, UniProt P52292 1-529).
T1 construct: human importin α1 (KPNA2); also called Flag-Impα1; FLAG-h-importin α1; source: bacterially expressed recombinant protein, purified; not shown: FLAG, N-terminal, kept
Kind of experiment: pull-down; GST fusion proteins immobilised on glutathione-Sepharose 4B beads; recombinant proteins (100 pmol each) in 200 μL transport buffer (20 mM HEPES pH 7.3, 110 mM potassium acetate, 2 mM magnesium acetate, 1 mM EGTA, 1 mM DTT) with 0.1% Triton X-100, 4 °C, 1 h; five washes; western blot. As to conditions: both partners purified.

Experiment [2] concerns the target T2, bacterially purified recombinant STAT1 protein (human, UniProt P42224 1-750).
T2 construct: human STAT1, full length, subcloned into pGEX6P2 from the pcDNA5/FRT/3xFLAG expression vector; The methods tell in general that GST tags were cleaved with PreScission or thrombin; also called STAT1 recombinant protein; Flag-h-STAT1; source: bacterially expressed recombinant protein, purified; not shown: Flag, N-terminal, kept
T2 sequence: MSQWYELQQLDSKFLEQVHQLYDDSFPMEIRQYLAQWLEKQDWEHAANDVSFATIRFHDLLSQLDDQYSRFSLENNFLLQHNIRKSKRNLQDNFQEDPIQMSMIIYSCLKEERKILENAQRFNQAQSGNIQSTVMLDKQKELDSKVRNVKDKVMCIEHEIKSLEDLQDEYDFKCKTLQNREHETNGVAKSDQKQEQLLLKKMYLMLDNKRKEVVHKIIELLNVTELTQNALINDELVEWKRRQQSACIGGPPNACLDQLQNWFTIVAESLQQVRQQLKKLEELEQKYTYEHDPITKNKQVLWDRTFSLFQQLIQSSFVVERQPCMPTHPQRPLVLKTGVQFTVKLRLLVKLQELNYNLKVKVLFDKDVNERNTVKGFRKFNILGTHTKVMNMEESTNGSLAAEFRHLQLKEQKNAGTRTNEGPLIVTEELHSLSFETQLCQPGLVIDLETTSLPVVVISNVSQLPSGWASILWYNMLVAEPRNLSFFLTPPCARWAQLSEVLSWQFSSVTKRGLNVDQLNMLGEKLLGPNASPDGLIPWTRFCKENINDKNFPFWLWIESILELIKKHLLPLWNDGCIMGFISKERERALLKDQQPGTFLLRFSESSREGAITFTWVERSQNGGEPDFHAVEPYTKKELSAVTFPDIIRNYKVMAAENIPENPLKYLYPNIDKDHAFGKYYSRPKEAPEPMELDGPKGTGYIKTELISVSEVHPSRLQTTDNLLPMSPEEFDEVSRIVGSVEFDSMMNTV
The experiment is described as above. As to conditions: both partners purified.

B1: GST-GFP-fused ORF6 full-length protein (natural protein)
chain: MFHLVDFQVTIAEILLIIMRTFKVSIWNLDYIINLIIKNLSKSLTENKYSQLDEEQPMEID
notes: Held on glutathione Sepharose beads by its GST; also called GST-GFP-ORF6; GST-GFP-ORF6 wild type (WT); not shown: GST, N-terminal, kept; GFP, N-terminal, kept
Take B1: in experiment [1], the binding result was “binds”.

B2: GST-GFP fused with the C-terminal peptide of ORF6 wild type (49-61 amino acids) (peptide)
chain: YSQLDEEQPMEID
notes: SARS-CoV-2 ORF6, the 13 amino acids 49-61 of the C-terminal region (M0); also called GST-M0-GFP; M0; not shown: GST, N-terminal, kept; GFP, C-terminal, kept
As for B2, the binding result in experiment [2] is reported as “binds”.
